Test results: paper doi:10.1101/686790

T1: GST-HP1γ-Hinge (UniProt P23198 77-111)
T1 chain: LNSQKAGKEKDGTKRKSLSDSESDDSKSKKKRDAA


Legend:
GST-HP1γ-Hinge = target: T1, GST-HP1γ-Hinge; test: EMSA
GST-HP1γ = GST-HP1γ (UniProt P23198 11-183); test: EMSA
Sequence of GST-HP1γ (P23198 11-183): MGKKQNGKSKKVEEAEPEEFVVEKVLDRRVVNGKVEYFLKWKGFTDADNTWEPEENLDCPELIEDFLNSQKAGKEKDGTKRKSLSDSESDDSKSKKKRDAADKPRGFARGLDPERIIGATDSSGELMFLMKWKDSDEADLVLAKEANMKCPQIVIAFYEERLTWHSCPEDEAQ

Row | Binder | binding result (GST-HP1γ-Hinge) | binding result (GST-HP1γ)
1 | UCUGGCACACAGCCACACGCUCAC (ssRNA) [CACACA] | binds | binds
2 | GUGAGCUCCAGGCCAGUGAGAGACCCUGUCUCAA (ssRNA) [GAGAGA] | binds | 
3 | CGCUUCGGGCUCGCCGCUCGCUUCC (ssRNA) [Scrambled] | no binding | 
